Holding throughout (test): native gel or EMSA; blue-native PAGE of the trimer-size SEC fractions (Superdex 200 Increase, TBS) after antibody affinity purification
Test [1] concerns the target 327c SOSIP.664 trimer (HIV-1 isolate 327c (subtype C)).
Test [2] concerns the target SIV trimer SIVcpzMT145 SOSIP.664 (simian immunodeficiency virus SIVcpzMT145).
Test [3] concerns the target CRF02_AG_250 SOSIP.664 trimer (HIV-1 isolate CRF02_AG_250 (subtype AG)).
The target of test [4] is B41 SOSIP.664 trimer (HIV-1 isolate B41 (subtype B)).

4 substances from article PMC5379070 can be followed below.

327c SOSIP.664 trimer (complex): in test [1], the stoichiometry N came out at 3. “SIV trimer SIVcpzMT145 SOSIP.664 (complex)” came in with a stoichiometry N in test [2] of 3.

Turning to CRF02_AG_250 SOSIP.664 trimer (complex), the stoichiometry N in test [3] came to 3. In test [4], B41 SOSIP.664 trimer (complex) registered a stoichiometry N of 3.
